Experimental data reported in the DeepSol protein solubility set.

experiment: soluble on expression in E. coli; label from the status in PepcDB or PDB records

| Sequence | soluble on expression in E. coli |
| --- | --- |
| MVKSPGASPERKKVKIDVYPMVVKDPQAREINETLLFDYTTALSSFETPTEEQLLVSEGDAFRHHPNEDVEQYFRASAQWGVPAIAWNIVRPAFLWKLEFCITEFMNVEKKKKEAAANSAQANSEVEKIAESPVKEKLSILGHKVNLIKTTPVVFSTEESMEFVLSKAKSFDGFPFTWQRLCELLIEPMRHYNTIDKFLRAVDKVINVVTTINENGGRSFGDWDLPNSQQFHLENTFFGVVDEVEMMELEKVKHDFQSSSSPSEEPLDMSQKSMPAPRVSTASPDPPSFVLPTARSPINTSPSSSPKASSPKASSPKAASPVSSPKSPVIQDQSPKKEDAKEGEGEIVHEEEMPEETLEVETKNEVNKEDADMEIGAE | not soluble |
| MVLASSSAFALKDDVNQPINIVSDNQSLDMEKSVVTFTDNVVITQGSIVIKANKVVITRPAEKSGKKETVEAFGTPVTFHQQLDNGKPVDGKANKVHYDLGNEFLTLTNNAELKQLDSKINGSVITYDVKKQQLKANGNGKSRVTTVLIPSQLQQAKGK | not soluble |
| MVMEDNESCASRVIFDALPTSQATMDRRERIKMEVFDEVLRRLRQSDIEDAHLPGFEDDLWNHFNRLPARYALDVNVERAEDVLMHKRLLHSAYDPQNRPAIEVHLVQVQPAGISADLDSTSNDAGHSSPTRKSIHPPPAFGSSPNLEALALAASLSQDEDADNSVHNNSLYSRPLHEITFSTEDKPKLLFQLTALLAELGLNIQEAHAFSTTDGYSLDVFVVDGWPYEETERLRISLEKEAAKIELQRPDFSEIIEQLQEIAKEVGEEGEEKKKSSTGLGGGIFAALRRSTTHH | soluble |
| MVMKREVVGYTTMSEHLIDTQLTRSPFFFASANQSMLGCGVAHAFQQAIPFAELANQAKQLLQQAKRDECDNPLLFGIVPFDPKTPTRFMIPRTLYVSSSPRLNRPAHLTRQVAKLISSPSGEQYKQGVSHLLNMFHHSGLSKVVLSRAIEIATEQEIALPTLLRSLLAINHHGYTFAASLDEQRKLIGASPELLVAKRGNYLISNPLAGSRPRSQDAQENAQRRASLLNTAKDLHEHGLVVEEVERIMSRYCRNLYTPMVPSVIETETMLHLSTLLEGQVSDPEVCALQVAADLHPTPAVCGFPRESAYQAIRELEEFDRGYFTGMVGWCDARGNGEWVVTIRCAEVGSHQMKLFAGAGIVDESLPQSELEETGAKMKTILAAAGIELNDVLTA | not soluble |
| MVMTVRVIAPDKTVWDAPAEEVILPSTTGQLGILSNHAPLLTALETGVMRVRQDREWVAIALMGGFAEVENNEVTILVNGAERGDTIDPQEAQQTLEIAEANLRKAEGARQKIEANLALRRARTRVEASNTISS | soluble |
| MVNYENVIVTEITETLTFFAQSVESGSKLESLMSKLHADFQSNPPIAGSYTPKRGDLVAAQFTLDNQWYRAKVERVQGSNATVLYIDYGNKETLPTNRLAALPPAFSSEKPYATEYALALVALPTDNEDKEEALRAFSEDVLNHKVQLNVELKVTGSPNLATLRDPTTKVDFGKQLVAEGLVLAEQRGERKLKELVDQYKAAQEAARVAHLAIWKYGD | soluble |
| MVPPKLKQALELFKSLPKELRSQVLLEYAAKVPPPPPGVELERVHECQTPFFVHADVEGGKVRLYFHVPDEAPTVKAFAGLLREGLEGESPEAVLEVPPGFYRGYGLEEFFTPLRLRGLEAALLRLQAQVRKALTS | soluble |
| MVPRTSSSNPTLRKTSPTMADIDITRSHSLGLDDGRAAVGRVADKLETELGVDAEWTGDTLQFSGQGADGHIEVEADAVHVAINLSAFLQPMRSRVQAEAEDYLDQSLQSQS | not soluble |
| MVQDQIRYDILVQDALRGVIRKVLSEVAKAGLPGSHHFFITFLTNAPGVKISTRLKSRYPEQMTIVLQHQFRDLNVSETAFEVTLSFREVSEKLVIPFHSIQVFYDPVAAFEAAFDLPSNLNSKEGENLENIASTPVILSDTQKKEKKFPKEQISKTNKDSSNNDTKQSADVVSLDSFRKKLEHHHHHH | soluble |
| MVQQQQQSQQRMMELHERNDREKLARKTEKEREEERRKQEDDKILQLEKKLEEFQENARFIGDLASNFQTKYQDALNGRIYTLVRGLQDLDRMKGTFSDKKVPLDLLPYLDDGKNPCLYSKHCMEKTLEKNKAVNGKIEIYKKFRAHLMKEFSEEMPDLVMYYRSIREDLDLS | not soluble |
| MVQRLISANASEIKRMSKEELFQSIKASEGRVILSENVVVHPSVAGDITCAEMSKAYGADMILLNVFDVNQPIVVAAYEGQYTAETCVPNDEVVHRLKELVGLPIGMNVEPVDENLDLASTRVSIEPGRKASAATFKKANELGLDFILLTGNPGTGVTNDLIAKNVALAKKHFDGIIIAGKMHSSGVDEPVVSLKSAEQFIEAGADIVLVPAVGTVWGIDDQQVKEVVDFAHSKGKLVMSAIGTSQESAQPEVIQAIGIRNKILGVDIQHIGDANMGLVGIENIKELSDAIRGKRHTVARMARSINR | not soluble |
| MVRDMRFCYRCGISEEEGGPLINGLCQVCFRKENPVLLLPSEINTELCQNCGSYKKRGVWVDPKNYELEALIFEVAENALLEALEDNLKVKDFEVVNWEELDEISEIPVGKAFVAYRVVDYHIEYFPAIVIYEVRSKARIHELQVEPHDERTTVTVYVRQTVCPRCQKFLAGYYEAILQVRVEGREFTKEEREEITKLVQEKVDEIMKRDRMGFIQDTIEKEEGIDFYMGSTSAARKLANAIREKYGGTISEAYELVGMDRQTSREVYRTSVTVRLPKFRKGDVVEDRYGRVYEVEEVNGKGMRLKNLETWKSEHYDWKTIKRERVDLANYEEKKAMLVSKTPSEVQFMDMETYETFEVKKPTDELKEGEVYTVVRVKGRMYVKEEVKELEHHHHHH | soluble |
| MVRKGRQHTEEALQEPRADRDRDVPNHIRGQAEQGVGARALQEGRGERAPQDTPAARGGRARGEGAREGEDYIARWEKPPRHHRQGDNGGARQDQARAGEVPLDLLILILIGP | soluble |
| MVSDAHFQGQFEVELKYRVKNHDAFLNMVKQIEHEVMFENNQESDWFYDTPQRTLTQQGKSLVLREIQPAGIKLWIVKGPEADRCEATNITKLDSAQSMLENMGYEVIQCSKKIRSIFFVGEFHITLDFLDGFGHFAEFAIMTDDETALARYRERLVALAQQFHLSEADREHRSYKEILSALEHHHHHH | soluble |
| MVSKLVKIEPKFKLIEKDGKGEYFIAKYNILPENLLVYGPEQELKKINTIQTNVKEFDTRTLFVSDYLEVVPPNPLVMFEKSHVVVNIYLNKLEHHHHHH | not soluble |
| MVSRSFFLTHTFKDVSKLGEGGSYSSDIEVRHDIPWKIRIFKKEGFLGVNLHCEKEECFETKKWTFQTKFTMKLVAVSDFPVSQHDSDNSFVLKHNFKNISRLVEDERDYSDTEKHYNALWSFKIRKFNEHLGIWLICEKEIWEERRWSINLQYELKLISASGKVRSAQYTNVFGVGSLWGILKFISWNNLEKDYVTNDSIDVEVLVKIIEFTELPCTEKTFVLSHIVKNMSSIEDGWKTFSDTQTRFNIPWKLQIRRQDGFVELLLHCSKQLDESRSWSIKTEYQFKLVSTNGRSVAFYGEKVFEKPVGSGWDKLIRWENWASRCNDEFVFEASVRILNTTGIEDENDVDRFSGFAIPVEGQEYSMEKWLEMAFDH | not soluble |
| MVSTDWKSDLRQRGYRLTPQRQLVLEAVDTLEHATPDDILGEVRKTASGINISTVYRTLELLEELGLVSHAHLGHGAPTYHLADRHHHIHLVCRDCTNVIEADLSVAADFTAKLREQFGFDTDMKHFAIFGRCESCSLKGSTTDS | soluble |
| MVSYKLTYFDGRGAGELCRQIFAAAEQKYEDNRLTDEEWEKFKAAGKTPYNQLPMLEVDGKPLAQSHAMARYLAREFGFNGKSRWEEAQVNSLADQYKDYYAEARPYLAVKLGYTEGDAEALYTSVYLPVFKKHYGFFVNALKASGSGFLVGNSLTFIDLLVAQHSADLLGREKSDLFNDVPEMKAHSEKVQSIPQIKKWIETRPASDW | not soluble |
| MVTEAMKAKAEVYHGDKTCREKFGSLLSEIGLPNRLLSNKEIKECGYVKDTGFVWLKHKEKKKEDQKRRYQDLLRFDNVVVCFEDEVTAYFEPNRIKKLTGVKAKEFMVWISLGEIQVNRSSGLITFKTEVGLLSKSLPLSVFEDVHGDDHDLKEKPKKELKLNKTKIYLY | not soluble |
| MVTLILLAGGSGTRASLNLPKQYYRIEEKMVIEYTLENVSRVKGVDNIILVSNPRFMDTALELKESFPKIKDVAKGGRTRNESIYNGFMKVPQKESKILVHDAVRPFTPRWVFERIISLLDERDVITTVNPITGNLIELDNGKVKRIYDRSKFAIGEAPTGYRYGALKKTLEVAVSNGTLNEIPHDIVLAMNAGFDVYVLPCNCFNLKITFKEDIEIARTLIKMLEERE | soluble |
| MVTLYGIKNCDTIKKARRWLEANNIDYRFHDYRVDGLDSELLNGFINELGWEALLNTRGTTWRKLDETTRNKITDAASAAALMTEMPAIIKRPLLCAPGKPMLLGFSDSSYQQFFHEV | not soluble |
| MVYDLAIIGGGINGCGIARDAAGRGHSVFLCEMNDLASGTSSWSTKLIHGGLRYLEYFEFRLVREALIERERLWQIAPHIIGPLRFVLPHHDGLRPAWRLRLGLFMYDYLGGRKLLPPTRSVDLAHDEVGKPLIPGRYTKGFEYSDCFVDDARLVVLTARDAAERGAEIRTRTRAVQVSQQGGIWQVTLEDVGSGARSTIQARALVNAAGPWVEGVLRSGAGVDARYKVRLVQGSHIVTRKLYDHDRAYIFQNADGRIVFAIPYQGDFTLIGTTDRDYHGDPSQVKATPEEIDYLCKAVSGYFAKPVTPADVVWTFSGVRPLYDDGASEAKAATRDYVFELDTPGGAPLLSIYGGKITTYRRLAEEALEKLSSYLKGGTAKQGWTAHQPLPGGDFPVDGGPALIGDLLREYPFLASAHASRLVHAYGTRARDVLGSAKSAADLGRDFGATLTEAEVRYLMSREWACSADDIVWRRSKLGLRLTPAAVAALDEWVIVHRAAEKPQQQAGGRALEHHHHHH | not soluble |
| MWEHDIVLEKIVDPVPDALYPCCIKAVRVGLKEDSWGEVQAIEEEMSTAELTANVNVALAPFQRKVVKEEGEAKKTKRAASKGRVEEVEQDVWKTLFDQALAYRDLAPWTWMDDDQIFAVVTPDGESLYCTVIGALGQEYGLVIYMGEEGYACLQDILSGTLHPKDAVFKERALLVSLAPRNHLERDDKALLRKHHIPVSGKQLLPMFRSFVPGYYPWFLSEEEAAWAAMALEQAVVVAERLRDGELFLASSARGNRLFARIAERREDGLHWRDGWVPPPKAKKKETSALDIGTDELAKAKTLERAPLFVEFSVAYVNRPIQERRWERPYFPLLVLAADAASGVILHHQVFRGQTDAKTLQQSFLAFARALGCVPSHVRVTKEHGPLLAPLLRELGVNMSTGPTPRSDEVRELFEQFAI | not soluble |
| MWLSGARLVLPDRVLTEGSLRLEGERIAEVREGFVPSGMDLRGFTVVPGLVDLHGDSLERELEPRPGVRLPLELALPSWELRQLAAGITTVYATVAFWEGAGGVREPDQGLRLAQELWGLRSALHVDLRIHARYEVSRPQGEPAVREALRKGWVHLLSFMDHTPGQGQFHDLETYVRYMARHHGRPEAEVYDEVKRLSTRATWEGLEALAAEALAKSIPLASHDDDTPDRVALMARLGVTVSEFPVRLEAAKEAKVRGMTVVMGAPNALRGGSHHGNLSALDALREGLLDALATDYLPEAALRAPFRLAAQGLLDLPLALALVTRRPALAVGLADRGALAPGLRADLVVLKESPFSVLGAFVAGKPVFVGGELAHALA | soluble |
